Paper PMC5454392, “Selective BET bromodomain inhibition as an antifungal therapeutic strategy” (Nature Communications, 2017)
Numbered stars: 1 amine (or outer) side, 2 acyl side, 3 side chain; on linkers, the order of the positions; unused ones are H or OH. Square brackets hold non-standard residues; d marks the D form. Ends that are not written are not given here. Arg(Me2a) = CN(C)C(=N)NCCC[C@H](N)C(=O)O; Kac = CC(=O)NCCCC[C@H](N[*:1])C(=O)[*:2]; Lys(Me3) = C[N+](C)(C)CCCC[C@H](N)C(=O)O; Arg(Me2s) = CN=C(NC)NCCC[C@H](N)C(=O)O; pT = C[C@@H](OP(=O)(O)O)[C@H](N)C(=O)O; Lys(Me2) = CN(C)CCCC[C@H](N)C(=O)O; Lys(Me) = CNCCCC[C@H](N)C(=O)O; Me2a = not defined here; me2a = not defined here

T1: CaBdf1 BD1 (GST-tagged, wild-type) (Candida albicans (strain SC5314 / ATCC …, UniProt Q5A4W8))
T1 chain: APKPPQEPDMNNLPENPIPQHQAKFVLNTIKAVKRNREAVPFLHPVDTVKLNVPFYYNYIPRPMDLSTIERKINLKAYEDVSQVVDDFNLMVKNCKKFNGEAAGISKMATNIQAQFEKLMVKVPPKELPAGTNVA


Molecular target: T1, CaBdf1 BD1 (GST-tagged, wild-type)
Experiment: histone peptide array (Active Motif MODified), 1 uM GST-tagged bromodomain, anti-GST detection, normalized mean intensity

**Q.** AR(Me2a)[pT]KQTARKSTGGKAPRKQ (reading uncertain) was tested. Which binding score did it give?
**A.** The binding score was 0.00181.

**Q.** Which binding score does the source give for ARTKQTARKSTGGKAPRKQ (A Rme2a T Kme2 Q T A Rme2a K S T G G K A P R K Q) here?
**A.** The binding score was 0.00508.

**Q.** Which binding score does the source give for ARTKQTARKSTGGKAPRKQ (A Rme2a T Kme1 Q T A Rme2a Kme3 S T G G K A P R K Q) here?
**A.** Its binding score is 0.00435.

**Q.** With ARTKQTARKSTGGKAPRKQ (A R T K Q T A Rme2a Kme2 S T G G K A P R K Q) as the binder, how does the binding score read?
**A.** The binding score was 0.0029.

**Q.** How did the binding score turn out when ARTK(me2)QTAR(me2s)K(Me)STGGKAPRKQ was run?
**A.** Its binding score is 0.00544.

**Q.** For A[Arg(Me2s)]T[Lys(Me)]QTA[Arg(Me2a)][Lys(Me2)]STGGKAPRKQ, which binding score is on record?
**A.** The binding score was 0.00471.

**Q.** Which binding score does the source give for AR(me2a)TK(Me)QTARKSTGGKAPRKQ (reading uncertain) here?
**A.** The binding score was 0.0029.

**Q.** For A[Arg(Me2s)]TK(Me)QTARK(Me)STGGKAPRKQ, which binding score is on record?
**A.** Its binding score is 0.0029.

**Q.** With ARTKQTARKSTGGKAPRKQ (A R T Kme1 Q T A Rme2s Kme2 S T G G K A P R K Q) as the binder, how does the binding score read?
**A.** The binding score was 0.00471.

**Q.** With ARTK(me2)QTAR(me2s)K(me3)STGGKAPRKQ as the binder, how does the binding score read?
**A.** The binding score was 0.0029.

**Q.** How did the binding score turn out when ARTKQTARKSTGGKAPRKQ (A R T K Q T A Rme2a Kac pS pT G G K A P R K Q) was run?
**A.** Its binding score is 0.00616.

**Q.** How did the binding score turn out when ARTKQTARKSTGGKAPRKQ (A Rme2s T Kme3 Q T A Rme2a Kme2 S T G G K A P R K Q) was run?
**A.** The binding score was 0.0029.

**Q.** Which binding score does the source give for ARTKQTARKSTGGKAPRKQ (A R T Kme3 Q T A Rme2a Kme1 S T G G K A P R K Q) here?
**A.** The binding score was 0.00435.

**Q.** ARTKQTARKSTGGKAPRKQ (A Rme2a T Kme3 Q T A Rme2a K S T G G K A P R K Q) was tested. Which binding score did it give?
**A.** Its binding score is 0.00363.

**Q.** Which binding score does the source give for ARTKQTARKSTGGKAPRKQ (A R T Kme3 Q T A Rme2a Kme2 S T G G K A P R K Q) here?
**A.** Its binding score is 0.00254.

**Q.** Which binding score does the source give for ARTKQTARKSTGGKAPRKQ (A R T K Q T A Rme2a K S pT G G K A P R K Q) here?
**A.** The binding score was 0.00399.

**Q.** For ARTKQTARKSTGGKAPRKQ (A Rme2s T Kme3 Q T A Rme2s K S T G G K A P R K Q), which binding score is on record?
**A.** Its binding score is 0.0029.

**Q.** How did the binding score turn out when ARTKQTARKSTGGKAPRKQ (A Rme2s T Kme2 Q T A Rme2a Kme3 S T G G K A P R K Q) was run?
**A.** Its binding score is 0.00508.

**Q.** Which binding score does the source give for ARTKQTARKSTGGKAPRKQ (A R T K Q T A R Kme3 S T G G Kac A P R K Q) here?
**A.** The binding score was 0.0225.

**Q.** How did the binding score turn out when ARTKQTARKSTGGKAPRKQ (A Rme2s T Kme3 Q T A R Kme1 S T G G K A P R K Q) was run?
**A.** The binding score was 0.00471.

**Q.** Which binding score does the source give for A[Arg(Me2s)]T[Lys(Me3)]QTA[Arg(Me2a)][Lys(Me3)]STGGKAPRKQ here?
**A.** Its binding score is 0.00363.

**Q.** With A[Arg(Me2s)]T[Lys(Me2)]QTA[Arg(Me2a)][Kac]STGGKAPRKQ as the binder, how does the binding score read?
**A.** Its binding score is 0.0402.

**Q.** For ARTKQTARKSTGGKAPRKQ (A Rme2a T Kme2 Q T A R Kac S T G G K A P R K Q), which binding score is on record?
**A.** Its binding score is 0.0337.

**Q.** For ARTK(Me2)QTAR(Me2a)K(Me3)STGGKAPRKQ (reading uncertain), which binding score is on record?
**A.** Its binding score is 0.00181.

**Q.** For ARTKQTARKSTGGKAPRKQ (A R T Kac Q T A Rme2s Kme1 S T G G K A P R K Q), which binding score is on record?
**A.** Its binding score is 0.00508.
